Test results: patent publication US20120316071A1 (published 2012)
Residue numbers refer to the chain shown, from its start. Names and notes keep the numbering of the source.

Legend:
[1] = target: T1, Recombinant Human DLL4 (R&D Systems Cat#1506-D4/CF) (human, UniProt Q9NR61 27-524); assay: ELISA titration, 2-fold dilutions from 20 nM Fab
T1 construct: bought recombinant protein; also called rHuman DLL4; delta-like protein 4

[2] = target: T2, Recombinant Human DLL4 (delta-like protein 4) (human, UniProt Q9NR61 27-524); assay: ELISA, plate-coated DLL4, Fab 25 nM
T2 construct: also called rHuman DLL4

[3] = target: T2, Recombinant Human DLL4 (delta-like …); assay: ELISA, plate-coated DLL4, Fab 3.125 nM
[4] = target: T2, Recombinant Human DLL4 (delta-like …); assay: ELISA, plate-coated DLL4, Fab 12.5 nM
[5] = target: T2, Recombinant Human DLL4 (delta-like …); assay: ELISA, plate-coated DLL4, Fab 100 nM
[6] = target: T2, Recombinant Human DLL4 (delta-like …); assay: ELISA, plate-coated DLL4, Fab 6.25 nM
[7] = target: T2, Recombinant Human DLL4 (delta-like …); assay: ELISA, plate-coated DLL4, Fab 50 nM
[8] = target: T3, Recombinant Human DLL4 (delta-like protein 4) (human, UniProt Q9NR61 27-524); assay: ELISA, DLL4 coated on plate, Fab at 20 nM, absorbance at 450 nm
T3 construct: Bought recombinant protein (R&D Systems Cat#1506-D4/CF) coated on the ELISA plate; also called rHuman DLL4; Delta-like 4

[9] = target: T3, Recombinant Human DLL4 (delta-like …); assay: ELISA, DLL4 coated on plate, Fab at 1.3 nM, absorbance at 450 nm
[10] = target: T3, Recombinant Human DLL4 (delta-like …); assay: ELISA, DLL4 coated on plate, Fab at 0.31 nM, absorbance at 450 nm
[11] = target: T3, Recombinant Human DLL4 (delta-like …); assay: ELISA, DLL4 coated on plate, Fab at 10 nM, absorbance at 450 nm
[12] = target: T3, Recombinant Human DLL4 (delta-like …); assay: ELISA, DLL4 coated on plate, Fab at 2.5 nM, absorbance at 450 nm
[13] = target: T3, Recombinant Human DLL4 (delta-like …); assay: ELISA, DLL4 coated on plate, Fab at 5 nM, absorbance at 450 nm
[14] = target: T3, Recombinant Human DLL4 (delta-like …); assay: ELISA, DLL4 coated on plate, Fab at 0.63 nM, absorbance at 450 nm
[15] = target: T3, Recombinant Human DLL4 (delta-like …); assay: ELISA, DLL4 coated on plate, Fab at 0.16 nM, absorbance at 450 nm
[16] = target: T4, Recombinant Human DLL4 (delta-like protein 4) (human, UniProt Q9NR61 27-524); assay: ELISA, DLL4 coated plate, Fab in solution; average signal minus noise
T4 construct: Bought recombinant human DLL4 (R&D Systems Cat#1506-D4/CF), coated on the plate; also called rHuman DLL4; Delta-like 4

[17] = target: T4, Recombinant Human DLL4 (delta-like …); assay: ECL (MSD) 96-well plate assay, recombinant human DLL4 coated, Fab in solution
[18] = target: T5, Recombinant Human DLL4 (human, UniProt Q9NR61 27-524); assay: ECL (MSD) multispot binding assay, DLL4 spotted on plate, Fab in solution
T5 construct: also called delta-like protein 4; rHuman DLL4

B1: Fab VH1-46_IGHD6-6*01_IGHJ1*01 S102A/S103P/S104F/H111F I51E/N52L/S54T/G56H & L6_IGKJ1*01 (Fab, V domains shown)
VH: QVQLVQSGAEVKKPGASVKVSCKASGYTFTSYYMHWVRQAPGQGLEWMGIELPTGHSTSYAQKFQGRVTMTRDTSTSTVYMELSSLRSEDTAVYYCAREEYAPFSAEYFQFWGQGTLVTVSS
VL: not shown
notes: Fab; also called APFF ELTH
Kd [1]: 1 to 10 nM

B2: Fab VH1-46_IGHD6-6*01_IGHJ1*01 S102A/S103P/S104F/H111F (APFF) & L6_IGKJ1*01 S28N/S30D/S31H (NDH) (Fab, V domains shown)
VH: B1 VH with E51I, L52N, T54S, H56G
VL: EIVLTQSPATLSLSPGERATLSCRASQNVDHYLAWYQQKPGQAPRLLIYDASNRATGIPARFSGSGSGTDFTLTISSLEPEDFAVYYCQQRSNWPPWTFGQGTKVEIKR
notes: Fab made in E. coli: VH in plasmid A (CH1, His6 and Flag tags), VL in plasmid C (kappa CL); also called H:APFF & L:NDH; APFF / NDH
ELISA signal at 25 nM Fab [2]: 0.31 | ELISA signal at 3.125 nM Fab [3]: 0.096 | ELISA signal at 12.5 nM Fab [4]: 0.192 | ELISA signal at 100 nM Fab [5]: 0.686 | ELISA signal at 6.25 nM Fab [6]: 0.125 | ELISA signal at 50 nM Fab [7]: 0.507

B3: Fab VH1-46_IGHD6-6*01_IGHJ1*01 S102A/S103P/S104F/H111F/N52L/S54T/G56H (APFF LTH) & L6_IGKJ1*01 (Fab, V domains shown)
VH: B1 VH with E51I
VL: not shown
notes: Tested as a Fab made in E. coli: VH cloned into Plasmid A (CH1, His6 and Flag tags), kappa VL into Plasmid C (kappa CL); also called H:APFF LTH & L:wt
ELISA signal [8]: 2.4 | ELISA signal [9]: 0.653 | ELISA signal [10]: 2.4 | ELISA signal [11]: 2.35 | ELISA signal [12]: 2.15 | ELISA signal [13]: 2.48 | ELISA signal [14]: 1.37 | ELISA signal [15]: 2.35

B4: Fab VH1-46_IGHD6-6*01_IGHJ1*01 S102A/S103P/S104F/H111F (H:APFF) & L6_IGKJ1*01 S28N/S30D/S31H (L:NDH) (Fab, V domains shown)
VH: B1 VH with E51I, L52N, T54S, H56G
VL: B2 VL
notes: Parent template of this NNK series; Fab made in E. coli: heavy chain from Plasmid A (CH1, His6 and Flag tags), kappa light chain from Plasmid C (kappa CL); also called H:APFF & L:NDH
ELISA (Avgerage signal-noise) [16]: 0.214 | ECL signal [17]: 17200

B5: Fab VH1-46_IGHD6-6*01_IGHJ1*01 S102A/S103P/S104F/H111F (H:APFF) & L6_IGKJ1*01 S28N/S30D/S31H A55R (Fab, V domains shown)
VH: B1 VH with E51I, L52N, T54S, H56G
VL: B2 VL with A55R
notes: Fab made in E. coli: heavy chain from Plasmid A (CH1, His6 and Flag tags), kappa light chain from Plasmid C (kappa CL); also called H:APFF & L:NDH A55R
ELISA (Avgerage signal-noise) [16]: 0.106 | ECL signal [17]: 9030

B6: Fab VH1-46_IGHD6-6*01_IGHJ1*01 S102A/S103P/S104F/H111F (APFF) & L6_IGKJ1*01 S28N/S30D/S31H A55S (Fab, V domains shown)
VH: B1 VH with E51I, L52N, T54S, H56G
VL: B2 VL with A55S
notes: Fab made in E. coli: VH in plasmid A (CH1, His6 and Flag tags), VL in plasmid C (kappa CL); also called H:APFF & L:NDH A55S; APFF / NDH/A55S
ELISA signal at 25 nM Fab [2]: 0.407 | ELISA signal at 3.125 nM Fab [3]: 0.108 | ELISA signal at 12.5 nM Fab [4]: 0.258 | ELISA signal at 100 nM Fab [5]: 0.858 | ELISA signal at 6.25 nM Fab [6]: 0.154 | ELISA signal at 50 nM Fab [7]: 0.588

B7: Fab VH1-46_IGHD6-6*01_IGHJ1*01 S102A/S103P/S104F/H111F (APFF) & L6_IGKJ1*01 W94T (Fab, V domains shown)
VH: B1 VH with E51I, L52N, T54S, H56G
VL: B2 VL with N28S, D30S, H31S, W94T
notes: Fab from E. coli; VH in Plasmid A (CH1, His6 and Flag tags), VL in Plasmid C (kappa CL); also called APFF & W94T
ECL signal [18]: 23200

B8: Fab VH1-46_IGHD6-6*01_IGHJ1*01 S102A/S103P/S104F/H111F/I51V/N52L/S54T/G56H (APFF VLTH) & L6_IGKJ1*01 (Fab, V domains shown)
VH: B1 VH with E51V
VL: not shown
notes: Tested as a Fab made in E. coli: VH in Plasmid A (CH1, His6 and Flag tags), kappa VL in Plasmid C (kappa CL); also called APPF VLTH
ELISA signal [8]: 2.05 | ELISA signal [9]: 0.252 | ELISA signal [10]: 2.05 | ELISA signal [11]: 1.85 | ELISA signal [12]: 1.66 | ELISA signal [13]: 2.2 | ELISA signal [14]: 0.785 | ELISA signal [15]: 1.85

B9: Fab VH1-46_IGHD6-6*01_IGHJ1*01 S102A/S103P/S104F/H111F (H:APFF) & L6_IGKJ1*01 S28N/S30D/S31H A55C (Fab, V domains shown)
VH: B1 VH with E51I, L52N, T54S, H56G
VL: B2 VL with A55C
notes: Fab made in E. coli: heavy chain from Plasmid A (CH1, His6 and Flag tags), kappa light chain from Plasmid C (kappa CL); also called H:APFF & L:NDH A55C
ELISA (Avgerage signal-noise) [16]: 0.146 | ECL signal [17]: 8230

B10: Fab VH1-46_IGHD6-6*01_IGHJ1*01 S102A/S103P/S104F/H111F (H:APFF) & L6_IGKJ1*01 S28N/S30D/S31H A55S (Fab, V domains shown)
VH: B1 VH with E51I, L52N, T54S, H56G
VL: B2 VL with A55S
notes: Fab made in E. coli: heavy chain from Plasmid A (CH1, His6 and Flag tags), kappa light chain from Plasmid C (kappa CL); also called H:APFF & L:NDH A55S
ELISA (Avgerage signal-noise) [16]: 0.383 | ECL signal [17]: 20000

B11: Fab VH1-46_IGHD6-6*01_IGHJ1*01 S102A/S103P/S104F/H111F/I51E/N52L/S54T/G56H (APFF ELTH) & L6_IGKJ1*01 (Fab, V domains shown)
VH: B1 VH
VL: not shown
notes: Tested as a Fab made in E. coli: VH in Plasmid A (CH1, His6 and Flag tags), kappa VL in Plasmid C (kappa CL)
ELISA signal [8]: 2.29 | ELISA signal [9]: 0.402 | ELISA signal [10]: 2.29 | ELISA signal [11]: 2.17 | ELISA signal [12]: 1.98 | ELISA signal [13]: 2.33 | ELISA signal [14]: 1.01 | ELISA signal [15]: 2.17

B12: Fab VH1-46_IGHD6-6*01_IGHJ1*01 S102A/S103P/S104F/H111F (APFF) & L6_IGKJ1*01 W94M (Fab, V domains shown)
VH: B1 VH with E51I, L52N, T54S, H56G
VL: B2 VL with N28S, D30S, H31S, W94M
notes: Fab from E. coli; VH in Plasmid A (CH1, His6 and Flag tags), VL in Plasmid C (kappa CL); also called APFF & W94M
ECL signal [18]: 33800

B13: Fab VH1-46_IGHD6-6*01_IGHJ1*01 S102A/S103P/S104F/H111F (APFF) & L6_IGKJ1*01 W94R (Fab, V domains shown)
VH: B1 VH with E51I, L52N, T54S, H56G
VL: B2 VL with N28S, D30S, H31S, W94R
notes: Fab from E. coli; VH in Plasmid A (CH1, His6 and Flag tags), VL in Plasmid C (kappa CL); also called APFF & W94R
ECL signal [18]: 75800
